According to article PMC6546417 (Science (New York, N.Y.), 2009):
Where “and” joins values, the source holds several entries; their conditions need not be identical. Equal entries are not always repeated.

B1: Dnm1 (enzyme, yeast, UniProt P54861 1-757, looked up)
chain: MASLEDLIPTVNKLQDVMYDSGIDTLDLPILAVVGSQSSGKSSILETLVGRDFLPRGTGIVTRRPLVLQLNNISPNSPLIEEDDNSVNPHDEVTKISGFEAGTKPLEYRGKERNHADEWGEFLHIPGKRFYDFDDIKREIENETARIAGKDKGISKIPINLKVFSPHVLNLTLVDLPGITKVPIGEQPPDIEKQIKNLILDYIATPNCLILAVSPANVDLVNSESLKLAREVDPQGKRTIGVITKLDLMDSGTNALDILSGKMYPLKLGFVGVVNRSQQDIQLNKTVEESLDKEEDYFRKHPVYRTISTKCGTRYLAKLLNQTLLSHIRDKLPDIKTKLNTLISQTEQELARYGGVGATTNESRASLVLQLMNKFSTNFISSIDGTSSDINTKELCGGARIYYIYNNVFGNSLKSIDPTSNLSVLDVRTAIRNSTGPRPTLFVPELAFDLLVKPQIKLLLEPSQRCVELVYEELMKICHKCGSAELARYPKLKSMLIEVISELLRERLQPTRSYVESLIDIHRAYINTNHPNFLSATEAMDDIMKTRRKRNQELLKSKLSQQENGQTNGINGTSSISSNIDQDSAKNSDYDDDGIDAESKQTKDKFLNYFFGKDKKGQPVFDASDKKRSIAGDGNIEDFRNLQISDFSLGDIDDLENAEPPLTEREELECELIKRLIVSYFDIIREMIEDQVPKAVMCLLVNYCKDSVQNRLVTKLYKETLFEELLVEDQTLAQDRELCVKSLGVYKKAATLISNIL

What was measured:
[1] = molecular target: the molecule itself; assay: negative-stain electron microscopy
cross-linking = molecular target: the molecule itself; assay: cross-linking
Dnm1K41A = molecular target: T1, Dnm1K41A (yeast, UniProt P54861 1-757, K41A); assay: liposome flotation
T1 sequence (looked up): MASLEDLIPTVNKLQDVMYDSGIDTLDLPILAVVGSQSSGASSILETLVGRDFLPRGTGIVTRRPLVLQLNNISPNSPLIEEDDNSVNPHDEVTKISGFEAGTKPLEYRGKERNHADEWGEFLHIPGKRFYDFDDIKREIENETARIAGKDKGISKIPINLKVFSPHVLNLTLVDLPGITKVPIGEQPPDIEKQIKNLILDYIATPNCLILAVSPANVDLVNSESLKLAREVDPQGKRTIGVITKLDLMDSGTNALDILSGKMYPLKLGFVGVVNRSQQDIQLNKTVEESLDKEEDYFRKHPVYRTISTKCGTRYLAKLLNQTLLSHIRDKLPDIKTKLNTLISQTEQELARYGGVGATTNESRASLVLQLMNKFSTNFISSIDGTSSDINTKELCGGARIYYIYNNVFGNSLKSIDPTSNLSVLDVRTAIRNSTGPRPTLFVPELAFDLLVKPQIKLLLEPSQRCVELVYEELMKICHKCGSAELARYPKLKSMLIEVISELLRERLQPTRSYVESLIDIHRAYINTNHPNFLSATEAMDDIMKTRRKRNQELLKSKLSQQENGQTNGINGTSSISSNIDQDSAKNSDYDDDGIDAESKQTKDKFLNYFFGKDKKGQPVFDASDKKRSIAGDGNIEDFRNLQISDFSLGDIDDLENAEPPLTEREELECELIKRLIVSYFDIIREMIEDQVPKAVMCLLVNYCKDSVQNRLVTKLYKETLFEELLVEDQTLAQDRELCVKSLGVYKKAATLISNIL

Dnm1 = molecular target: B1; assay: cell-based or functional assay
[2] = molecular target: the molecule itself; assay: SEC + other: sucrose gradient sedimentation

Question: Does B1 bind [1]?
Answer: Result: binds

B2: Mdv1 (natural protein, yeast, UniProt P47025 1-714, looked up)
chain: MSVNDQITHIGKTLSTTASAFLNYQKSNSNTQDVLTNNGPYKNLLSNTVNNASSTSYFYKRTEHGRFVKNASNTFEDIYSKTRRGDVFRNKFTDNKTCFRMLTYISDDLLNEIPTKEGLKSDADGKLLTEGGENENLRKNASKKETSLFQGFKSYLPIAELAIENTERLNYDTNGTSGTVGAKDVMSKTNERDEIHTELPNFQDSFLIPPGVETKKISSSYSPSALKSFSQTLVNSLEFLNIQKNSTLSEIRDIEVEVENLRQKKEKLLGKIANIEQNQLLLEDNLKQIDDRLDFLEEYGLEVIEANSDENAEDDGMSERKALKNDAIRNEGVTTESISSEASNLPPRRRQQLRDDNSLNRLGAFYSKSKKRHRKSFPTFQQLYEPGTKIGSIMSTHDDFLTCLDFDAPFGTLCTAGYLDHTVKIWDLSKQNKIGELAGHLATINCMQINRDYGTLVTGGRDAALKLWNLNLAQQLYQETQNLTSPTNHIDSPCVHTFEAHTDEVTALSLDPSFLVSGSQDRTIRQWDLRSGKCLQTIDLSFANVLTTSTNVDLSKSTLLTQRNERPSIGALQSFDAALATGTKDGVVRLWDLRSGKVIRTLKGHTDAITSLKFDSACLVTGSYDRTVRIWDLRTGLLNKFHAYSAPVLSLDLFQENAAVVVADEPSVQIYDSEKDESWSCVEQGNETSVSTVKYKENYMVEGRENGDVNIWAV
Question: What does the source list for B2?
Answer: stoichiometry N (cross-linking): 4 and 6; binding result (Dnm1K41A): binds; amount of GTP cross-linked to Dnm1 by ultraviolet light on addition of Mdv1 (Dnm1): 1.4 fold; stoichiometry N [2]: 2
